Among the data in patent US20210147526A1 are Binding Reactivity (% WT) values, retold here.

Test [1] addresses ITGA7 mutant P980A on HEK-293T cells (human) (UniProt P05556). In words: high-throughput flow cytometry on HEK-293T cells with the ITGA7 alanine mutant, high stringency, normalized to wild type. For orientation: Flow cytometry measures light scatter and fluorescence of single cells or particles in a stream.
The target in test [2] is ITGA7 mutant S977A on HEK-293T cells (human) (UniProt P05556). Described as above.
Chain of ITGA7 mutant S977A on HEK-293T cells (human) (chain, as listed by the source S977A S977A, chain 1 of 2): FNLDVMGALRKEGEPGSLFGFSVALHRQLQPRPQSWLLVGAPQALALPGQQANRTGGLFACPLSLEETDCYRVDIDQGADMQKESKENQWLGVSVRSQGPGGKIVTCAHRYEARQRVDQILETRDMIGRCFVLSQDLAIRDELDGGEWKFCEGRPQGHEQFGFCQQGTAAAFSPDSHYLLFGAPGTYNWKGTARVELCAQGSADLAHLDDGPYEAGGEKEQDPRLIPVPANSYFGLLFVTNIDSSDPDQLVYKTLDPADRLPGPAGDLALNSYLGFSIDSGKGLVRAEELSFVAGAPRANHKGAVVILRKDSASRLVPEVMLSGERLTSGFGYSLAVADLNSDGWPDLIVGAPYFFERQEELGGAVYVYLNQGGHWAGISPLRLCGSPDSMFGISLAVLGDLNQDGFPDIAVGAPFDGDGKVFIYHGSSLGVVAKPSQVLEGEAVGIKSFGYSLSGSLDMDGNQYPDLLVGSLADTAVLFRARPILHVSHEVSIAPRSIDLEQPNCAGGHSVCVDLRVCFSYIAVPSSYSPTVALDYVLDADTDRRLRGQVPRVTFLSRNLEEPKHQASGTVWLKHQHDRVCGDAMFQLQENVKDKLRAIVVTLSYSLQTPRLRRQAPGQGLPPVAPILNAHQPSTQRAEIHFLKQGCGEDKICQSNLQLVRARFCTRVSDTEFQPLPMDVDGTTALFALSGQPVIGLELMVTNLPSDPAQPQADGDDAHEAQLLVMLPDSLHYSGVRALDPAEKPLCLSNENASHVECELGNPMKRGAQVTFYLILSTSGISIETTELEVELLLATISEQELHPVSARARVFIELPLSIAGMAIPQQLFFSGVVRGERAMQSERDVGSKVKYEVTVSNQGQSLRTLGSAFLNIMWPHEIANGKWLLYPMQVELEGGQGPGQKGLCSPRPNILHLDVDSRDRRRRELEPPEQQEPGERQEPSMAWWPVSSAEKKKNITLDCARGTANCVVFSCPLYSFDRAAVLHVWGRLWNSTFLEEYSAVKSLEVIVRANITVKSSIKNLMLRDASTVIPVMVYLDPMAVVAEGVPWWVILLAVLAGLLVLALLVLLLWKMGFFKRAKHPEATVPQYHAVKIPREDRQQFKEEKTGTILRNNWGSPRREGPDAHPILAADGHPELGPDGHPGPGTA
Chain of ITGA7 mutant S977A on HEK-293T cells (human) (P05556 21-798, chain 2 of 2): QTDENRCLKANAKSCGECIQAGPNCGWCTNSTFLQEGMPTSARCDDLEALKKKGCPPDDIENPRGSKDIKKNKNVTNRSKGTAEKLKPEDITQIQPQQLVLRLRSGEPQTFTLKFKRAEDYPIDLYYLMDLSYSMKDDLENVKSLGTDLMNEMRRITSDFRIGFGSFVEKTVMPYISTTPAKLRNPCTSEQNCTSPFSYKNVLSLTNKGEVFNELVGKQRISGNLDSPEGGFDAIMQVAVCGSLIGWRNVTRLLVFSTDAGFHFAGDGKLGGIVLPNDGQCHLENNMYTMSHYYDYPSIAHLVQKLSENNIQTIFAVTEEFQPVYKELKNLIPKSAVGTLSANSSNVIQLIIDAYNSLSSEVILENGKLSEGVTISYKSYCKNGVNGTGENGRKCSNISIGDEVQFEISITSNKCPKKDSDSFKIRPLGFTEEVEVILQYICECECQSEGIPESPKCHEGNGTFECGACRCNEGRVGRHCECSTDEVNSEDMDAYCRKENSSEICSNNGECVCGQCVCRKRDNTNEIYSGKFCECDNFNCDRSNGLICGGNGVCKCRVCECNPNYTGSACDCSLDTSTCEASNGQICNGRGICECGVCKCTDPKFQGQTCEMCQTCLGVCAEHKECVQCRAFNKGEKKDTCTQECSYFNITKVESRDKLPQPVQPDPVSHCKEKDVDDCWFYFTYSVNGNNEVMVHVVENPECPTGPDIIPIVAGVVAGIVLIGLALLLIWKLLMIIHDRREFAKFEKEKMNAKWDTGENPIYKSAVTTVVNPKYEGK

Chain of ITGA7 mutant P980A on HEK-293T cells (human) (chain, as listed by the source P980A P980A, chain 1 of 2): as the sequence (chain, as listed by the source S977A S977A, chain 1 of 2) above, with A944S, P947A counted along it
Chain of ITGA7 mutant P980A on HEK-293T cells (human) (P05556 21-798, chain 2 of 2): as the sequence (P05556 21-798, chain 2 of 2) above

B1: VL3VHK20TFT Fab (Fab, V domains shown)
VH: QVQLVQSGAEVKKPGASVKVSCKASGYTFTKYWINWVRQAPGQGLEWMGIIYPGSSTSNYNEKFKTRVTMTVDTSTSTAYMELSSLRSEDTAVYYCVKNDNWGQGTLVTVSS
VL: DIQMTQSPSSLSASVGDRVTITCRASESVDNYGISFMNWFQQKPGKAPKLLIYAASDLGSGVPSRFSGSGSGTDFTLTISSLQPEDFATYYCHQSKEVPYTFGQGTKLEIK
As for B1, the Binding Reactivity (% WT) is 1.1 % WT in test [1] and 8 % WT in test [2].
